According to patent US20050244862A1:
Values belong to the binder of their own block, whether it stands above or below them.

How the values were obtained:
Assay in all cases: cell-based or functional assay
ETA endothelin receptor = target: T1, ETA endothelin receptor
T1 sequence (P25101 whole entry, species assumed, looked up): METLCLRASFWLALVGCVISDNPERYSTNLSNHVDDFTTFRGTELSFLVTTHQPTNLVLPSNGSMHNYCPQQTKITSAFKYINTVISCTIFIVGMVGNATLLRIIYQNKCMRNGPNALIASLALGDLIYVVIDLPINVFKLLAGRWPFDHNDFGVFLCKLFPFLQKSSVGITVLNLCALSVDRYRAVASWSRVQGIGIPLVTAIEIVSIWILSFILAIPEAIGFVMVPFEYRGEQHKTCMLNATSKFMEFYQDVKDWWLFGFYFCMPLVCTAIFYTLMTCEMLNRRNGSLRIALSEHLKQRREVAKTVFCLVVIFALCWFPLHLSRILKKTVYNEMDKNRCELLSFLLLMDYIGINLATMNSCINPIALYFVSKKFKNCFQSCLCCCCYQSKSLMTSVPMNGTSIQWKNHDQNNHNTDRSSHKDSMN

NK1 tachykinin receptor = NK1 tachykinin receptor (UniProt P25103)
Sequence of NK1 tachykinin receptor (P25103 whole entry): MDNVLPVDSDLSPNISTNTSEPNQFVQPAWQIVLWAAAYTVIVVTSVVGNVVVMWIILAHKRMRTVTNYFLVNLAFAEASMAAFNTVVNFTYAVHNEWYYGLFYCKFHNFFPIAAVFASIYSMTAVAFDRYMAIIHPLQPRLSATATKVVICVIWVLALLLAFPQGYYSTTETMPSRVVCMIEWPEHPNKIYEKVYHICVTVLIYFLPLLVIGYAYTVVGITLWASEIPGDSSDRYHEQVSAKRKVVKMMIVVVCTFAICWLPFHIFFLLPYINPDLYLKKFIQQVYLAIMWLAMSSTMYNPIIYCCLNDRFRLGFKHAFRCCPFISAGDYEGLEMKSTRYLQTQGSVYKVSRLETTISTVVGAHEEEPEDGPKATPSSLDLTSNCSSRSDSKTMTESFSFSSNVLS

NK2 tachykinin receptor = NK2 tachykinin receptor (UniProt P21452)
Sequence of NK2 tachykinin receptor (P21452 whole entry): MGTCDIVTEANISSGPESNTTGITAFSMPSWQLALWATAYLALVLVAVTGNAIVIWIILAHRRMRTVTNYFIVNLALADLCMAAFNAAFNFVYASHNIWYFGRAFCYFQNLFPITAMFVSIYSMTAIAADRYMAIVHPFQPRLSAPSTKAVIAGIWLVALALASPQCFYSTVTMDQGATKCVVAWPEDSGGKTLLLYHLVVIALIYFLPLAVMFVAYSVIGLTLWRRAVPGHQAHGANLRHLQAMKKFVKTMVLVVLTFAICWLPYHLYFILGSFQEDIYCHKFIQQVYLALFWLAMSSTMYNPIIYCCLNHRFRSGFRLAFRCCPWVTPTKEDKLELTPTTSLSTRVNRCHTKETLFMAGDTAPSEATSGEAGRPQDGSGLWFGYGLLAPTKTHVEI

NK3 tachykinin receptor = target: T2, NK3 tachykinin receptor (UniProt P29371)
T2 sequence (looked up): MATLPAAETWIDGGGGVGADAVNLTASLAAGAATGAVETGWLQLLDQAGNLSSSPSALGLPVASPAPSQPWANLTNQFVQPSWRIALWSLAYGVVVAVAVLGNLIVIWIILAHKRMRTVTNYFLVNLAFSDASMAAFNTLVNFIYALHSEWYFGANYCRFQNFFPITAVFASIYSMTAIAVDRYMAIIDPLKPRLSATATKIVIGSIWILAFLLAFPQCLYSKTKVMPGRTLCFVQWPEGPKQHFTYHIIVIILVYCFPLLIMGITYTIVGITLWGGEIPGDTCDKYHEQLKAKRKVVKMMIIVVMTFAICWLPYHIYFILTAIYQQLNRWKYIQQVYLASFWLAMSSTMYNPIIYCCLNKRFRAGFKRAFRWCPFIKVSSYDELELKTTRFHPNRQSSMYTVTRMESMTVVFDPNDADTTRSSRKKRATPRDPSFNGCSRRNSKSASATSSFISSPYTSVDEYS

ETB endothelin receptor = target: ETB endothelin receptor
Sequence of ETB endothelin receptor (P24530 whole entry): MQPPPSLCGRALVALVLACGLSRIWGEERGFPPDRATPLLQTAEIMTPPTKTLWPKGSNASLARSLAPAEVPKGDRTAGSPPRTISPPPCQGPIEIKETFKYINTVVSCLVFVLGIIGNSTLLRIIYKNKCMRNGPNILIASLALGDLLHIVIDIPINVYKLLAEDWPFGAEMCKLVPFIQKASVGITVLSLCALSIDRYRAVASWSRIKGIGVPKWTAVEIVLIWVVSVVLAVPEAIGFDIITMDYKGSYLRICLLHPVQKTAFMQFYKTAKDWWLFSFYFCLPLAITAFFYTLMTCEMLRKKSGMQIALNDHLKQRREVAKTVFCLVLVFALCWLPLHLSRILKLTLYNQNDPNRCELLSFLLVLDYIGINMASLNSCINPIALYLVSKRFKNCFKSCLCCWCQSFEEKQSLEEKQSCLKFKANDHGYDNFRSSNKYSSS

[1] = target: human trk A receptor (human) (UniProt P04629)
Sequence of human trk A receptor (human) (P04629 33-796): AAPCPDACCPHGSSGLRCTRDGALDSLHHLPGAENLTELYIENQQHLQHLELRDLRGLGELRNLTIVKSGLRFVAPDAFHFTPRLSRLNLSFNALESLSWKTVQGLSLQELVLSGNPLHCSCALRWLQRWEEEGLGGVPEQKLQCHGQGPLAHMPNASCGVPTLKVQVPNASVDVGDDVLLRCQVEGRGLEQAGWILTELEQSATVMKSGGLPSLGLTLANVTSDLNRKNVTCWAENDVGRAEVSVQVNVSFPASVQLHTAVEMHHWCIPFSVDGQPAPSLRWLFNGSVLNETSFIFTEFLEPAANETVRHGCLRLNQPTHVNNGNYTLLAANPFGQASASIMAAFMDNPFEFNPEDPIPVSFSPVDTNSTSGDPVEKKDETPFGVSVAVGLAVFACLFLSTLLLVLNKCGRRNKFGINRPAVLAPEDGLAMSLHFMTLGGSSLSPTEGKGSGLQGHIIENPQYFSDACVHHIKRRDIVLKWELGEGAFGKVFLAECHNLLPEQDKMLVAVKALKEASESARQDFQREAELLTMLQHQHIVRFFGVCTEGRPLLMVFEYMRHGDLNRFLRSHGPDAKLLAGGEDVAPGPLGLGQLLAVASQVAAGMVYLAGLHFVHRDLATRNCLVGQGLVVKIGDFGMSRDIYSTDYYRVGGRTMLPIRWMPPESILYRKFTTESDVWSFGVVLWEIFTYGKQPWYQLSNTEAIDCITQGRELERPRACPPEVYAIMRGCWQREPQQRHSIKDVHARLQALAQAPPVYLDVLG

trk C receptor subtype = target: trk C receptor subtype

B1: ET-2 (peptide, UniProt P20800 49-69, looked up)
peptide: CSCSSWLDKECVYFCHLDIIW
EC50, amplification assay (β-galactosidase), Single Receptor Format (ETA endothelin receptor): 16 nM

B3: ET-3 (peptide, UniProt P14138 97-117, looked up)
peptide: CTCFTYKDKECVYYCHLDIIW
EC50, amplification assay (β-galactosidase), Single Receptor Format (ETA endothelin receptor): 2.1 nM | EC50, amplification assay (β-galactosidase), Single Receptor Format (ETB endothelin receptor): 0.14 nM

Now from value to binder:

EC50, amplification assay (β-galactosidase), Single Receptor Format (NK1 tachykinin receptor): 99 nM | EC50, amplification assay (β-galactosidase), Single Receptor Format (NK2 tachykinin receptor): 1.3 nM | EC50, amplification assay (β-galactosidase), Single Receptor Format (NK3 tachykinin receptor): 100 nM
B2: neurokinin B (peptide, UniProt Q9UHF0 81-90, looked up)
peptide: DMHDFFVGLM

EC50, amplification assay (β-galactosidase), Single Receptor Format [1]: > 1000 ng/mL | EC50, amplification assay (β-galactosidase), Single Receptor Format (trk C receptor subtype): 2.4 ng/mL
B4: neutrotrophic factor NT3 (ligand, UniProt P20783 139-257, looked up)
chain: YAEHKSHRGEYSVCDSESLWVTDKSSAIDIRGHQVTVLGEIKTGNSPVKQYFYETRCKEARPVKNGCRGIDDKHWNSQCKTSQTYVRALTSENNKLVGWRWIRIDTSCVCALSRKIGRT
